Measured values: patent US20100035280A1 (Chugai, published 2010)
Values belong to the binder of their own block, whether it stands above or below them.

What was measured:
[1] = biological target: T1, human desmoglein 3 (DSG3) (human, UniProt P32926 50-999); test: flow cytometry, FITC anti-mouse IgG secondary antibody
T1 construct: Full-length DSG3 gene stably expressed on CHO DG44 cells (DSG3-DG44) for flow cytometry; also called DSG3-DG44 cells; DSG3-Ba/F3 cells
T1 sequence: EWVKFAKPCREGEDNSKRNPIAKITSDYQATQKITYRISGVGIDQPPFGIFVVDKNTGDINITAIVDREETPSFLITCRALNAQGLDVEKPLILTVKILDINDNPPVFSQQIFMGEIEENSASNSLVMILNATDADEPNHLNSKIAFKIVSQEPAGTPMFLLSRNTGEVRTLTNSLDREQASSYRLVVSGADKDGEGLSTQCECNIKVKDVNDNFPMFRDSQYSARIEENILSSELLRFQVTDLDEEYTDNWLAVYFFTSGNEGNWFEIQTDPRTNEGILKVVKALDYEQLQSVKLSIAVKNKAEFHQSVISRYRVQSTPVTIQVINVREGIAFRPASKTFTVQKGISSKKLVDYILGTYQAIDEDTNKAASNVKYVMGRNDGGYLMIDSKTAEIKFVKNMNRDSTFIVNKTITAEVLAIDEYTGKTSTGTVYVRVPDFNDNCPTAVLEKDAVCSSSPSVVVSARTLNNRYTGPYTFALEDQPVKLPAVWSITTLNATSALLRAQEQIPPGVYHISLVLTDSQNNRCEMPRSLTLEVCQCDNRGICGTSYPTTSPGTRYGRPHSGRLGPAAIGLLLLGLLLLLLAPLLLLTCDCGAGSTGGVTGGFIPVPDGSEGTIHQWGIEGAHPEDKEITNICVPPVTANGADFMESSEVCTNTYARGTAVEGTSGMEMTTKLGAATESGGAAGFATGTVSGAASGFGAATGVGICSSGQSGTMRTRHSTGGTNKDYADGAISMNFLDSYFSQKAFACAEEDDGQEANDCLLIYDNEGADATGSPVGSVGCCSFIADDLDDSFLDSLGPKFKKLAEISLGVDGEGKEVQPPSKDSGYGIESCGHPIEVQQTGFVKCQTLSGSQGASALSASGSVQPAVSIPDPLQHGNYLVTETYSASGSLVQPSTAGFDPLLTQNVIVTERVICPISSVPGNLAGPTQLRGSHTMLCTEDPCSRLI
Description: (§1) Binding of the DF366c antibody to DSG3-DG44 cells and DG44 cells was detected by flow cytometry. 3×10⁴ cells were reacted with 10 μg/mL of DF366c antibody on ice for one hour, and then washed. Then, this was reacted with an FITC-labeled anti-human IgG antibody (Beckman Coulter) as the secondary antibody on ice for one hour, washed, and then subjected to flow cytometry. FACS Calibur (Becton Dickinson) was used as the flow cytometer. DF366c antibody bound to DSG3-DG44 cells, but not to the parental DG44 cells. Therefore, the DF366c antibody was confirmed to bind specifically to DSG3.
The pMCD/G2a-DF366 and pMCN/k-DF366 plasmids were introduced into DG44 cells by electroporation. The CHO DF366m-DG44 cells, which stably express the mouse IgG2a chimeric DF366 antibody (DF366m) were established by selection in a nucleic acid (HT supplement)-free medium containing 500 μg/mL of Geneticin. Subsequently, the DF366m antibody was purified from the culture supernatant of DF366m-DG44 using a Hi Trap Protein G HP column. The solvent was substituted with PBS using a PD-10 column. The concentration of the DF366m antibody purified was quantified using a DC Protein Assay kit. The DF366m antibody was subjected to flow cytometric analysis to confirm that the antibody specifically binds to DSG3 in the same way as the DF366c antibody. […]

[2] = biological target: T1, human desmoglein 3 (DSG3); test: flow cytometry screening on DSG3-DG44 cells
Description: Binding of the DF366 antibody to DSG3-DG44 cells was detected by flow cytometry. 5×10⁴ cells of DSG3-DG44 was reacted with 3 μg/mL of DF366 antibody on ice for 30 minutes, and then washed. Then, this was reacted with an FITC-labeled anti-mouse IgG antibody (Beckman Coulter) as the secondary antibody on ice for 30 minutes, washed, and then subjected to flow cytometry. FACS Calibur (Becton Dickinson) was used as the flow cytometer. The DF366 antibody bound to DSG3-DG44 cells, but not to the parental DG44 cells. Therefore, the DF366 antibody was confirmed to bind specifically to DSG3.

[3] = biological target: T1, human desmoglein 3 (DSG3); test: flow cytometry, 10 µg/mL antibody on DSG3-DG44 CHO cells
Description: as §1

binding result [1]: binds
B1: mouse IgG2a chimeric DF366 antibody (DF366m) (antibody)
heavy: EVQLQQSGPELVKPGASVKISCKASGYTFTDYNMDWVKQSHGESLEWIGYIYPNNGGSGYNQKFKSKATLTVDKSSSTAYMELHSLTSEDSAVYYCARRDSYYGFDMAWFAYWGQGTLVTVSAAKTTAPSVYPLAPVCGDTTGSSVTLGCLVKGYFPEPVTLTWNSGSLSSGVHTFPAVLQSDLYTLSSSVTVTSSTWPSQSITCNVAHPASSTKVDKKIEPRGPTIKPCPPCKCPAPNLLGGPSVFIFPPKIKDVLMISLSPIVTCVVVDVSEDDPDVQISWFVNNVEVHTAQTQTHREDYNSTLRVVSALPIQHQDWMSGKEFKCKVNNKDLPAPIERTISKPKGSVRAPQVYVLPPPEEEMTKKQVTLTCMVTDFMPEDIYVEWTNNGKTELNYKNTEPVLDSDGSYFMYSKLRVEKKNWVERNSYSCSVVHEGLHNHHTTKSFSRTPGK
light: DIQMTQSPASLSASVGETVTITCRPSENIYNNLAWYQQKQGKSPQLLVYVATNLAEGVPSRFSGSGSGTRFSLKINSLQPEDFGKYYCQHSYGTPWTFGGGTKLEIKRADAAPTVSIFPPSSEQLTSGGASVVCFLNNFYPKDINVKWKIDGSERQNGVLNSWTDQDSKDSTYSMSSTLTLTKDEYERHNSYTCEATHKTSTSPIVKSFNRNEC
notes: DF366 variable regions on mouse IgG2a/kappa constant regions, made in CHO DG44 cells; The full-length entries may include a signal peptide; also called DF366m antibody

binding result [2]: binds
B2: DF366 antibody (antibody, V domains shown)
VH: EVQLQQSGPELVKPGASVKISCKASGYTFTDYNMDWVKQSHGESLEWIGYIYPNNGGSGYNQKFKSKATLTVDKSSSTAYMELHSLTSEDSAVYYCARRDSYYGFDMAWFAYWGQGTLVTVSA
VL: DIQMTQSPASLSASVGETVTITCRPSENIYNNLAWYQQKQGKSPQLLVYVATNLAEGVPSRFSGSGSGTRFSLKINSLQPEDFGKYYCQHSYGTPWTFGGGTKLEIK
notes: Mouse monoclonal antibody purified from hybridoma supernatant; also called anti-DSG3 antibody; anti-human desmoglein 3 antibody

binding result [3]: binds
B3: human IgG1 chimeric DF366 antibody (DF366c) (antibody)
heavy: not shown
light: DIQMTQSPASLSASVGETVTITCRPSENIYNNLAWYQQKQGKSPQLLVYVATNLAEGVPSRFSGSGSGTRFSLKINSLQPEDFGKYYCQHSYGTPWTFGGGTKLEIKRTVAAPSVFIFPPSDEQLKSGTASVVCLLNNFYPREAKVQWKVDNALQSGNSQESVTEQDSKDSTYSLSSTLTLSKADYEKHKVYACEVTHQGLSSPVTKSFNRGEC
notes: Mouse DF366 variable regions on human IgG1/kappa constant regions, made in CHO DG44 cells; The full-length entries may include a signal peptide; also called DF366c antibody
